In US20240109962A1 (SPARX BIOSCIENCE, published 2024):
Like-named read-outs stand apart in the source and are kept apart here. Each block holds one binder with its values, some of them ahead of it.

Tests used:
[1] = biological target: T1, human LILRB2 expressed on cells (293T-LILRB2, CHO-K1-LILRB2) (human, UniProt Q8N423 22-597); test: flow cytometry on 293T-LILRB2 cells, serial dilution, APC anti-human IgG; fit table under the graph
T1 construct: whole, on cells; the cell line is named under assay; also called HEK293T-LILRB2
T1 sequence (Q8N423 22-597): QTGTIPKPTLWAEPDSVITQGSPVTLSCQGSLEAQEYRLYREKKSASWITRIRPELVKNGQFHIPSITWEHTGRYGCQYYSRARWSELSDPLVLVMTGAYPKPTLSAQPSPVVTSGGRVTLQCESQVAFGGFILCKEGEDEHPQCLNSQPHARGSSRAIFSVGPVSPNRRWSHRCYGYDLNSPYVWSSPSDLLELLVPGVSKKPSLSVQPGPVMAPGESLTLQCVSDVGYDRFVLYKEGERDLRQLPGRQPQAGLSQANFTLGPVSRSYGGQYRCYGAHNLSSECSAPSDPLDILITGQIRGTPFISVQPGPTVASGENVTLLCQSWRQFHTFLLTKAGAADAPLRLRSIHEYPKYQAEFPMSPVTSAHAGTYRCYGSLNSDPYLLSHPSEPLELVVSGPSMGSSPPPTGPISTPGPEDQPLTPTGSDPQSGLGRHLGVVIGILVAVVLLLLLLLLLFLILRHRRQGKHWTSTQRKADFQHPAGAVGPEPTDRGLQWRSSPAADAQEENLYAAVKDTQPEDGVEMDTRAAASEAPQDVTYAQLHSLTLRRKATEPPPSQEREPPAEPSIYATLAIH
Source text: (§1) The cells were washed and then subject to flow cytometry to measure levels of fluorescent signals.

[2] = biological target: T1, human LILRB2 expressed on cells …; test: as above; remark: listed apart in the source
Source text: as §1

[3] = biological target: T1, human LILRB2 expressed on cells …; test: flow cytometry, blockade of His-tagged HLA-G tetramer binding to 293T-LILRB2 cells; fit table under the graph, row headed EC50
Experimental: (§2) Serial diluted humanized LILRB2 antibodies were then added to the mixture and incubated at room temperature for another 45 minutes. The binding of HLA-G/LILRB2 was detected afterwards using a secondary PE-labeled anti-His tag antibody via flow cytometry.

[4] = biological target: T1, human LILRB2 expressed on cells …; test: flow cytometry, blockade of His-tagged HLA-G tetramer binding to 293T-LILRB2 cells; fit table under the graph
Experimental: as §2

[5] = biological target: T1, human LILRB2 expressed on cells …; test: flow cytometry, blockade of His-tagged HLA-A2 tetramer binding to 293T-LILRB2 cells; fit table under the graph
[6] = biological target: T1, human LILRB2 expressed on cells …; test: flow cytometry on 293T-LILRB2 cells, serial dilution, APC anti-human IgG; fit table under the graph; remark: listed apart in the source
Source text: as §1

[7] = biological target: T1, human LILRB2 expressed on cells …; test: as above; remark: listed apart in the source
Source text: as §1

[8] = biological target: T1, human LILRB2 expressed on cells …; test: flow cytometry, blockade of His-tagged HLA-G tetramer binding to 293T-LILRB2 cells; fit table under the graph; remark: listed apart in the source
Experimental: as §2

[9] = biological target: T1, human LILRB2 expressed on cells …; test: as above; remark: listed apart in the source
Experimental: as §2

[10] = biological target: T1, human LILRB2 expressed on cells …; test: flow cytometry, blockade of His-tagged HLA-A2 tetramer binding to 293T-LILRB2 cells
[11] = biological target: T2, recombinant human LILRB2 protein (human, UniProt Q8N423 22-460, limits assumed); test: ELISA, coated recombinant human LILRB2; set-up: unit not given here
T2 construct: also called recombinant LILRB2 protein
T2 sequence (Q8N423 22-460 limits assumed): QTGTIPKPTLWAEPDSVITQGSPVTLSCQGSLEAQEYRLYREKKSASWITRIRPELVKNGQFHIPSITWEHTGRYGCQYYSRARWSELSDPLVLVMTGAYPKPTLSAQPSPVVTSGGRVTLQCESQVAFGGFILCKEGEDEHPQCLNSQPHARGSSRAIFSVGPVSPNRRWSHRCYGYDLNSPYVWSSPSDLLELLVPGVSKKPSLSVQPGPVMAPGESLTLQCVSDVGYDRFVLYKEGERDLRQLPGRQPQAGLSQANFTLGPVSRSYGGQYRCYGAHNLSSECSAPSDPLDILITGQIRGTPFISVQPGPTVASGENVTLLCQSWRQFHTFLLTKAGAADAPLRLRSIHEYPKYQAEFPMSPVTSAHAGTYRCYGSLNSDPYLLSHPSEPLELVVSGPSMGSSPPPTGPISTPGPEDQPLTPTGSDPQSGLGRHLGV
Experimental: This affinity maturation library was screened against human LILRB2 to identify antibodies having high binding affinity to LILRB2. Briefly, an ELISA plate was coated with 0.1 ug/well recombinant human LILRB2 protein. Serial diluted maturated h#2E1 antibodies were incubated in the LILRB2 coated plate for 2 hrs. The plate was washed and a secondary HRP-labeled anti-human IgG was then added to each well. After being incubated at room temperature for 1 hour, the colorimetric ELISA signals were developed by adding the TMB substrate and reaction was stopped by 1M H3PO4. Table 7 below provides binding activities of exemplary matured antibodies to recombinant LILRB2 protein.

[12] = biological target: T1, human LILRB2 expressed on cells …; test: flow cytometry, 293T-LILRB2 cells
Source text: The fluorescent signals were detected by flow cytometry.

[13] = biological target: T1, human LILRB2 expressed on cells …; test: flow cytometry, His-HLA-A2 tetramer (competitor) bound to 293T-LILRB2 cells, relative to no antibody; set-up: concentration or dose not given beside the values
Experimental: Serial diluted h#2E1 antibodies were then added to the mixture and incubated at room temperature for another 45 minutes. […]

[14] = biological target: T3, human LILRB1 expressed on 293T cells (human, UniProt Q8NHL6 24-650); test: cell ELISA on fixed 293T transfectants, antibody 2 µg/ml, OD490
T3 construct: whole, on cells
T3 sequence (Q8NHL6 24-650): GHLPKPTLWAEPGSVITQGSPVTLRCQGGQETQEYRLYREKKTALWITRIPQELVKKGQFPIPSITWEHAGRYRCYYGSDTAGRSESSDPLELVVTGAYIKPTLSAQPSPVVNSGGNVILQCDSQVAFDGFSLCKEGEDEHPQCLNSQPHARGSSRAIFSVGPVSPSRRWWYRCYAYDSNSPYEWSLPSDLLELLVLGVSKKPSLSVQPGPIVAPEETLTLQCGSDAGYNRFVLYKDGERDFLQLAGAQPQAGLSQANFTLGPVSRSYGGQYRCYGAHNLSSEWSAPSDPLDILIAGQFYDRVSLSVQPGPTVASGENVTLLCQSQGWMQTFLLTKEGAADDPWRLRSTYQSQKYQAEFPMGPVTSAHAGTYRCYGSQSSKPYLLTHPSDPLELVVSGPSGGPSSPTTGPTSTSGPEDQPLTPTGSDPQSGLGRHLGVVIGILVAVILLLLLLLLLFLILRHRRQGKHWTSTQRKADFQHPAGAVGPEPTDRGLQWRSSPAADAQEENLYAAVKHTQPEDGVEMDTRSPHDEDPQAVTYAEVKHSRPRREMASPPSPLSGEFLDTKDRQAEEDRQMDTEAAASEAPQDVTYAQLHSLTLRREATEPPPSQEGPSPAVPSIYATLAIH
Experimental: (§3) The cells were then immobilized with glutaraldehyde in the presence of 5% defatted milk at room temperature for 2 hours. An anti-LILRB2 antibody (2 μg/ml) was added to each well and incubated at room temperature for 2 hours. An HRP-labelled goat anti-mouse secondary antibody was then added into each well and incubated at room temperature for one hour. An HRP substrate, o-phenylenediamine dihydrochloride (OPD) was then added to each well. The plate was incubated at room temperature for 15 min to allow color development and OD₄₉₀ values were determined.

[15] = biological target: T4, human LILRB3 expressed on 293T cells (human, UniProt O75022 24-631); test: as above
T4 construct: whole, on cells
Experimental: as §3

[16] = biological target: T5, His-tagged human LILRB2 polypeptide (human, UniProt Q8N423 22-460); test: SPR, antibody on CM5 chip, His-LILRB2 analyte, 1:1 model
T5 construct: SPR analyte; also called His-tagged human LILBR2 polypeptide; not shown: His tag
T5 sequence (Q8N423 22-460 limits assumed): as the sequence (Q8N423 22-460 limits assumed) above
Experimental: Surface plasmon resonance (SPR) was used to examine binding activities of exemplary anti-LILBR2 antibodies disclosed herein. Briefly, the anti-LILBR2 antibody was diluted in a coating buffer to a concentration of 30 μg/ml, loaded onto CM5 chips at 10 μl/min to allow coating of the antibody on the surface of the CM5 chip. […] Binding affinity was measured based on the 1:1 binding model.

[17] = biological target: LILRB2 antigen of the ELISA of Table 5 (format not specified) (UniProt Q8N423 22-460, limits assumed); test: ELISA, antibody titration
Chain of LILRB2 antigen of the ELISA of Table 5 (format not specified) (Q8N423 22-460 limits assumed): as above

Bmax [1]: 556000 RFU
Kd [1]: 0.162 nM
Bmax [2]: 647000 RFU
Kd [2]: 0.446 nM
EC50 [3]: 0.163 nM
IC50 [4]: 0.361 nM
Span [4]: 8000 RFU
IC50 [5]: 0.787 nM
Bmax [6]: 618000 RFU
Kd [6]: 0.377 nM
Kd [7]: 0.364 nM
Span [8]: 11900 RFU
IC50 [9]: 0.813 nM
IC50 (read off the curve) [10]: ~1 nM
B1: Antibody h#2E1 (antibody, V domains shown)
VH: EVQLVESGGGLVQPGGSLRLSCAVSGYSITSGYYWNWIRQAPGKGLEWVAYISYDGNNNYNPSLKNRFTISRDTSKNTFYLQMNSLRAEDTAVYYCAREESTMITTAWFAYWGQGTLVTVSS
VL: DIQMTQSPSSLSASVGDRVTITCRASENIYSNLAWYQQKPGKAPKLLIYGATNLASGVPSRFSGSGSGTDYTLTISSLQPEDFATYYCQHFWDTPYTFGQGTKVEIK
notes: Humanized variant of 11B12; detected with anti-human IgG

Bmax [11]: 1.37
IC50 [4]: 0.36 nM
Span [4]: 5700 RFU
IC50 [5]: 0.468 nM
IC50 [8]: 0.442 nM
Span [8]: 8620 RFU
Bmax [12]: 461000
IC50 [9]: 0.472 nM
% no Ab [13]: 50.7%
B2: Antibody 2E1_FC11 (antibody, V domains shown)
VH: EVQLVESGGGLVQPGGSLRLSCAVSGYSITSGYYWNWIRQAPGKGLEWVAYISYDGNINYNPSLKNRFTISRDTSKNTFYLQMNSLRAEDTAVYYCAREESTMITTAWFAYWGQGTLVTVSS
VL: DIQMTQSPSSLSASVGDRVTITCRASENIYSNLAWYQQKPGKAPKLLIYGATNLASGVPSRFSGSGSGTDYTLTISSLQPEDFATYYCQHFWDYPYTFGQGTKVEIK
notes: also called A16

binding result [14]: binds
binding result [15]: binds
Kd [16]: 0.317 nM
koff [16]: 0.000107 s⁻¹
kon [16]: 338000 M⁻¹ s⁻¹
Kd [17]: 0.705 nM
B3: Antibody 10D7 (antibody, V domains shown)
VH: EVKLVESGGGLVKPGGSLKLSCAASGFTFSSYGMSWVRQTPEKRLEWVATISGAFSYTYYPDSVKGRFTISRDNAKNNLYLQMSSLRSEDTAFYYCARHDNSLYYAMDYWGQGTSVTVSS
VL: NVQITQSPSYLAASPGETITINCRTSKSITKYLAWYQEQPGKTNKLLIYSGSTLQSGIPSRFSGSGSGTDFTLTISSLEPEDFAMYYCQQHNEYPWTFGGGTKLEIK
notes: Mouse hybridoma mAb purified from ascites
